The record followed here is paper PMC11267847.

Holding throughout (assay): EMSA
Common to all, as to settings: EMSA kit (Biyuntian): 50 ng biotin-labeled DNA, 2 uL binding buffer, 2 ug protein; competitors 5 ug unlabeled DNA; buffer composition, pH and temperature not …

The target in series [1] is T1, Gsm1p (Pichia pastoris (Komagataella phaffii), strain SMD1168?) (UniProt C4R1K8).
T1 sequence: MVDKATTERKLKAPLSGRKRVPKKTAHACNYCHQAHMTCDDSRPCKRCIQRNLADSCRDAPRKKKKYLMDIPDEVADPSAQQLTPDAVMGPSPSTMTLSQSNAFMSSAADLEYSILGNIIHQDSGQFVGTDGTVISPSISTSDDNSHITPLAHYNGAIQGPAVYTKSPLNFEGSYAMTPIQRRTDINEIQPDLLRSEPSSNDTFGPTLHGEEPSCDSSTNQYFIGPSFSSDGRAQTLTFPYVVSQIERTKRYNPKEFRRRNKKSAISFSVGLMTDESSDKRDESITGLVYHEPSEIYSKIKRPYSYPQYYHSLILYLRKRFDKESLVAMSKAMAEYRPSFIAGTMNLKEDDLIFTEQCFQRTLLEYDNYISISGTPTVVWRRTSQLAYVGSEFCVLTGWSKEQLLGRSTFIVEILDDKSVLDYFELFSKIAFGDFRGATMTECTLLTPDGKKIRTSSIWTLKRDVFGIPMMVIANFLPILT

Series [2] has as its target T2, Hot1p (Pichia pastoris (Komagataella phaffii), strain SMD1168?) (UniProt C4QW90).
T2 sequence: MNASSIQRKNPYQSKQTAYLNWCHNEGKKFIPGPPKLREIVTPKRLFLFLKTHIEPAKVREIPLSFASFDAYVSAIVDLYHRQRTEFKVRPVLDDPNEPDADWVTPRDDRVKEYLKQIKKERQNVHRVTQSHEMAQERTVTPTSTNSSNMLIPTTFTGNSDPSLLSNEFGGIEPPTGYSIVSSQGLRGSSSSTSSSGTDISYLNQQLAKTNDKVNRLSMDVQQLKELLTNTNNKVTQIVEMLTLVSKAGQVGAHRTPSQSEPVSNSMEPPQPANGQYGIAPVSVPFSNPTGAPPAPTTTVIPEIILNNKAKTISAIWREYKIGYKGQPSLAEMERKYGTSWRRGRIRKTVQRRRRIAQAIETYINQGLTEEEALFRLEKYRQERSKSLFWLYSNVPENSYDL

Series [3] has as its target T3, Loc1p (Pichia pastoris (Komagataella phaffii), cloned from P. pastoris genome, strain SMD1168?) (UniProt C4QX18).
T3 sequence: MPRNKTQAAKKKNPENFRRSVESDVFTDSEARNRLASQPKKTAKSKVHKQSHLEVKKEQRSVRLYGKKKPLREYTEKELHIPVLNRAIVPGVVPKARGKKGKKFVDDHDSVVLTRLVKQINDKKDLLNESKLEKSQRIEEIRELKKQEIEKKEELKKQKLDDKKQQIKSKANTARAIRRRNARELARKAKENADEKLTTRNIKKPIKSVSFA

Turning to “CATGCGTCCGCCCGCTATTATTGCCAGCGACGGCCGGGACTTTTCCATCCCTGGGCTGCTAGGTCGGGTACACGACCTCCGTTTTACCCGCAACGTAATGCTGGGAAGAGCATTGCTGCAAGGGGGCCGTAGAAGAAGCTCTCCAGCAGAGTAAAATTTCCTAGGGACGGTAACGGGCGGTGGAAGGAGAGAGAAGGGAAGAGA (double strand) [pGAP-BC]”, the binding result in series [1], in series [2] and in series [3] was “binds” each time.
For the sequence “AGCAGCCCAGGGATGGAAAAGTCCCGGCCGTCGCTGGCAATAATAGCGGGCGGACGCATGTCATGAGATTATTGGAAACCACCAGAATCGAATATAAAAGGCGAACACCTTTCCCAATTTTGGTTTCTCCTGACCCAAAGACTTTAAATTTAATTTATTTGTCCCTATTTCAATCAATTGAACAACTATTTCGAAACG (double strand) [pGAP-CD]”, the binding entry in series [1] was “binds”; in series [2], “binds”; in series [3], “no binding”.
On to “AGATCTTTTTTGTAGAAATGTCTTGGTGTCCTCGTCCAATCAGGTAGCCATCTCTGAAATATCTGGCTCCGTTGCAACTCCGAACGACCTGCTGGCAACGTAAAATTCTCCGGGGTAAAACTTAAATGTGGAGTAATGGAACCAGAAACGTCTCTTCCCTTCTCTCTCCTTCCACCGCCCGTTACCGTCCCTAGGAAATTTTAC (double strand) [pGAP-AB]”, for which the binding result in series [1], in series [2] and in series [3] was “binds” throughout.
